The values that follow are results of earlier work, collected in patent US11535641B2, “Method for preparing GOS having reduced allergenicity” (FRIESLANDCAMPINA NEDERLAND B.V., priority 2017, dated 2022).

Like-named read-outs stand apart in the source and are kept apart here.

The conditions of data set [1]: acetate buffer (pH 6.0).
The conditions of data set [2]: for Ratio in GOS (%) DP2*: lactose not included; for Amount of GOS (content of GOS in total sugar): 24 hours, 53% lactose, 1 U per g lactose.
The conditions of data set [3]: GOS yield about 50% (65° C., 24 hours).
[4] abbreviates: comparison of enzymes, GOS yield about 50%.
Setting [5] is: comparison of enzymes, typical results when GOS yield about 50% (65° C., 24 hours).

B1: C. terrestris M2 (mutant strain enzyme 1): β-galactosidase with N-terminal 130 residues of wild-type deleted, SEQ ID NO: 2 (protein, listed as Cryptococcus terrestris)
chain: ATTNQDAITPTATGPVGGQGTPAVNFTDYSSSSLEQFWNDWVGEVEEPPFAYVPEPPNPYPLPNAPPPIYPEYYTKRPKDILPDYKFPKDFLFGWATAAQQWEGAVKADGKGPSIWDWASRFPGFIADNTTSDVGDLGYYLYKEDLARIAALGANVYSFSMFWTRIFPFGKADSPVNQAGIDFYHDLIDYSWSLGIEPVVTLFHWDTPLALQLEYGGFASERIIDDYVNYAETVFKAYNGSVHKWVTFNEPVVFCSQMAAPVNTTLPPNLNSTIYPYTCSYHLVLAHAKTVKRFRELNIQGQIAFKSDNFVGIPWREGNQEDIDAVERHQAYQIGIFAEPIYNTGDWPDIVKNDLSPDILPRFTDDEIAMIKCTADFFPIDGYRDGYVQAVPGGVEACVANISNPLWPACNQVNFYDSTPAGWAIGTFGNWPTTPWLQNTWQFVRPFLADLAKRYPTEGGIYLSEFGFSEPFENDKTFIYQITQDSGRTAYFNSYLGEVLKGIVEDGIPIKGVFGWSMVDNFEWNSGLSTRFGVQYVDYNSPTRQRTFKRSALEMSEFWNAHRCSA
On to B1, for which the optimum temperature in data set [1] was 70 °C. Also, the “Ratio in GOS (%) DP2*” value in data set [2] (setting [4]) was 25.3%. In data set [2] (setting [5]), the “Ratio in GOS (%) DP3” value was 60.5% and the “Ratio in GOS (%) ≥ DP4” value is given as 14.2%. Further, in data set [3], the “Ratio in DP3 (%) β1-2, β1-3” value is reported as 20.7%; the “Ratio in DP3 (%) β1-4” value was 79.0%; the “Ratio in DP3 (%) β1-6” value is on record as 0.4%.

B2: WT strain enzyme: β-galactosidase from Cryptococcus terrestris strain MM13-F2171, SEQ ID NO: 1 (protein, listed as Cryptococcus terrestris)
chain: MIPASALLAAVPLLAQQVSAGILRRQNAAGSDSAAPDSIADASTGVVSSIATEAVSSGATGLVASVAMSFASSMATPTATVTGLSSETGAPSNTPMASASGSVPTTTSAVGSGDFDWVQTDGLPTITTTLATTNQDAITPTATGPVGGQGTPAVNFTDYSSSSLEQFWNDWVGEVEEPPFAYVPEPPNPYPLPNAPPPIYPEYYTKRPKDILPDYKFPKDFLFGWATAAQQWEGAVKADGKGPSIWDWASRFPGFIADNTTSDVGDLGYYLYKEDLARIAALGANVYSFSMFWTRIFPFGKADSPVNQAGIDFYHDLIDYSWSLGIEPVVTLFHWDTPLALQLEYGGFASERIIDDYVNYAETVFKAYNGSVHKWVTFNEPVVFCSQMAAPVNTTLPPNLNSTIYPYTCSYHLVLAHAKTVKRFRELNIQGQIAFKSDNFVGIPWREGNQEDIDAVERHQAYQIGIFAEPIYNTGDWPDIVKNDLSPDILPRFTDDEIAMIKCTADFFPIDGYRDGYVQAVPGGVEACVANISNPLWPACNQVNFYDSTPAGWAIGTFGNWPTTPWLQNTWQFVRPFLADLAKRYPTEGGIYLSEFGFSEPFENDKTFIYQITQDSGRTAYFNSYLGEVLKGIVEDGIPIKGVFGWSMVDNFEWNSGLSTRFGVQYVDYNSPTRQRTFKRSALEMSEFWNAHRCSA
On to B2, for which the optimum temperature in data set [1] was 70 °C. The enzyme activity retained in data set [1] (within the stable temperature range, 30 minutes) is not below 80%. For the same molecule, in data set [2] (setting [4]), the “Ratio in GOS (%) DP2*” value was 25.8%. In data set [2] (setting [5]), the “Ratio in GOS (%) DP3” value is 57.5% and the “Ratio in GOS (%) ≥ DP4” value is reported as 16.7%. Besides, in data set [2] (reaction temperature 65° C.), the “Ratio in GOS (%) DP3” value is 51.8%, the “Ratio in GOS (%) ≥ DP4” value is reported as 22.1%, the “Amount of GOS (content of GOS in total sugar)” value (from here on “Amount of GOS”) is 53.4% and the “Ratio in GOS (%) DP2*” value is 26.1%. In data set [2] (reaction temperature 70° C.), the “Ratio in GOS (%) DP3” value is on record as 47.4%, the “Ratio in GOS (%) ≥ DP4” value is recorded as 25.8%, the “Amount of GOS” value is 54.2% and the “Ratio in GOS (%) DP2*” value was 26.8%. Moreover, in data set [3], the “Ratio in DP3 (%) β1-2, β1-3” value is recorded as 22.1%; the “Ratio in DP3 (%) β1-4” value is given as 76.3%; the “Ratio in DP3 (%) β1-6” value was 1.5%.

B3: C. terrestris M6 (mutant strain enzyme 3): β-galactosidase with N-terminal 141 residues of wild-type deleted, SEQ ID NO: 4 (protein, listed as Cryptococcus terrestris)
chain: ATGPVGGQGTPAVNFTDYSSSSLEQFWNDWVGEVEEPPFAYVPEPPNPYPLPNAPPPIYPEYYTKRPKDILPDYKFPKDFLFGWATAAQQWEGAVKADGKGPSIWDWASRFPGFIADNTTSDVGDLGYYLYKEDLARIAALGANVYSFSMFWTRIFPFGKADSPVNQAGIDFYHDLIDYSWSLGIEPVVTLFHWDTPLALQLEYGGFASERIIDDYVNYAETVFKAYNGSVHKWVTFNEPVVFCSQMAAPVNTTLPPNLNSTIYPYTCSYHLVLAHAKTVKRFRELNIQGQIAFKSDNFVGIPWREGNQEDIDAVERHQAYQIGIFAEPIYNTGDWPDIVKNDLSPDILPRFTDDEIAMIKCTADFFPIDGYRDGYVQAVPGGVEACVANISNPLWPACNQVNFYDSTPAGWAIGTFGNWPTTPWLQNTWQFVRPFLADLAKRYPTEGGIYLSEFGFSEPFENDKTFIYQITQDSGRTAYFNSYLGEVLKGIVEDGIPIKGVFGWSMVDNFEWNSGLSTRFGVQYVDYNSPTRQRTFKRSALEMSEFWNAHRCSA
Consider B3, for which the optimum temperature in data set [1] was 70 °C. For the same molecule, the “Ratio in GOS (%) DP2*” value in data set [2] (setting [4]) was 25.8%. Moreover, in data set [2] (setting [5]), the “Ratio in GOS (%) DP3” value is 54.2% and the “Ratio in GOS (%) ≥ DP4” value is reported as 19.9%. In data set [2] (reaction temperature 50° C.), the “Ratio in GOS (%) DP3” value is 68.9%, the “Ratio in GOS (%) ≥ DP4” value was 6.4%, the “Amount of GOS” value was 46.9% and the “Ratio in GOS (%) DP2*” value was 24.7%. For the same molecule, in data set [2] (reaction temperature 60° C.), the “Ratio in GOS (%) DP3” value is 58.2%, the “Ratio in GOS (%) ≥ DP4” value is given as 16.1%, the “Amount of GOS” value is listed as 52.1% and the “Ratio in GOS (%) DP2*” value is recorded as 25.8%. In addition, in data set [2] (reaction temperature 65° C.), the “Ratio in GOS (%) DP3” value is on record as 53.4%, the “Ratio in GOS (%) ≥ DP4” value is 20.9%, the “Amount of GOS” value is reported as 53.2% and the “Ratio in GOS (%) DP2*” value was 26.0%. In data set [2] (reaction temperature 70° C.), the “Ratio in GOS (%) DP3” value is given as 49.2%, the “Ratio in GOS (%) ≥ DP4” value was 24.5%, the “Amount of GOS” value is 53.9% and the “Ratio in GOS (%) DP2*” value is reported as 26.3%. Moreover, in data set [3], the “Ratio in DP3 (%) β1-2, β1-3” value is given as 22.1%; the “Ratio in DP3 (%) β1-4” value was 75.2%; the “Ratio in DP3 (%) β1-6” value is reported as 2.7%.
